Measured values published in publication PMC11341715, “Structural insights into Frizzled3 through nanobody modulators” (Nature Communications, 2024).

Columns and labels:
Settings in all cases: both partners purified
[1] = molecular target: T1, biotinylated multidomain FZD3 (C-terminally truncated, in detergent) (human, UniProt Q9NPG1, biotin (in vivo biotinylation of the Avi tag)); test: BLI; Octet Red 96e; biotinylated multidomain FZD3 or FZD6 in detergent immobilised, nanobody or DEP in solution; 10 mM HEPES pH 7.5, 150 mM NaCl, 0.02% Tween 20, 0.005% GDN; 1:1 binding model
T1 construct: human Frizzled-3 (FZD3), UniProt Q9NPG1; C-terminally truncated construct (CRD, linker and transmembrane domain); residues 26-517 are stated for the multidomain production construct, not expressly for the Avi-tagged one; The results call it 'full-length FZD3'; the methods say the biotinylated transmembrane constructs were C-terminally truncated; Functional assays in cells used wild type FZD3 …

[2] = molecular target: T2, biotinylated FZD6 (C-terminally truncated transmembrane construct, in detergent) (Homo sapiens, UniProt O60353, biotin (in vivo biotinylation of the Avi tag)); test: as above
T2 construct: Frizzled-6 (FZD6), C-terminally truncated transmembrane construct; the methods say C-terminal truncated, without limits; also called full length FZD6; source: HEK293T with biotin ligase, transfected, biotinylated in vivo, in detergent; not shown: Avi3, C-terminal, kept
T2 sequence (O60353 19-706): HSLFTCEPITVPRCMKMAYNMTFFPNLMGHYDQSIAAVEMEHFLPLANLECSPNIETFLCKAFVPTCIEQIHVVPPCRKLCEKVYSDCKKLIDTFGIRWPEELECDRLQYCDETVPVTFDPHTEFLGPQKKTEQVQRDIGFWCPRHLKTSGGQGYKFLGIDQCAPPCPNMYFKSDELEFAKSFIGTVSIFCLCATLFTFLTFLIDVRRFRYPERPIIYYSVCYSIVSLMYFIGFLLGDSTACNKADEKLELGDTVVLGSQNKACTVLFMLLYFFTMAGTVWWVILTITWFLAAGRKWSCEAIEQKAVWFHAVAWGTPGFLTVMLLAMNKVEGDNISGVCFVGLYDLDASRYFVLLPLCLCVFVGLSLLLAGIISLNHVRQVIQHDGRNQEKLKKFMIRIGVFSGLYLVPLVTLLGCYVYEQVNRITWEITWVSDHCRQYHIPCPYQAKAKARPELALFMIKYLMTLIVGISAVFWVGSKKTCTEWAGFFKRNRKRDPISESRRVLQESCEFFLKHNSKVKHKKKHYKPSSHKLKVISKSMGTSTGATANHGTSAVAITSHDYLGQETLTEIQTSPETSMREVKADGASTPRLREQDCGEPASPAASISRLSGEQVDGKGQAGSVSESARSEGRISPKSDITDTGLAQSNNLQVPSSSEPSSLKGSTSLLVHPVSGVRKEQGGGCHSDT

[3] = molecular target: T3, biotinylated FZD3 cysteine-rich domain (CRD) (human, UniProt Q9NPG1, biotin (in vivo biotinylation of the Avi tag)); test: BLI; Octet Red 96e; biotinylated FZD3 or FZD6 CRD immobilised, Nb8 or Wnt5a in solution; 10 mM HEPES pH 7.5, 150 mM NaCl, 0.02% Tween 20, 0.005% GDN; 1:1 binding model
T3 construct: human Frizzled-3 (FZD3), UniProt Q9NPG1, cysteine-rich domain; residues 26-138 are stated for the FZD3 CRD production construct, not expressly for the Avi-tagged one; The limits 26-138 are told for the Twin-Strep construct; also called FZD3 CRD; Frizzled3 CRD; source: HEK293T constitutively expressing ER-localised biotin ligase, transfected, biotinylated in vivo; not shown: Avi3, C-terminal, kept

[4] = molecular target: T4, biotinylated FZD7 cysteine-rich domain (CRD) (Homo sapiens, UniProt O75084, biotin (in vivo biotinylation of the Avi tag)); test: BLI; BLItz System; initial qualitative test of the 10 biotinylated human FZD CRDs binding to Nb8
T4 construct: human Frizzled-7 (FZD7) cysteine-rich domain; One of 'all 10 human Frizzled CRDs'; also called FZD7 CRD; source: HEK293T constitutively expressing ER-localised biotin ligase, transfected, biotinylated in vivo; not shown: Avi3, C-terminal, kept

[5] = molecular target: T5, biotinylated FZD4 cysteine-rich domain (CRD) (Homo sapiens, UniProt Q9ULV1, biotin (in vivo biotinylation of the Avi tag)); test: as above
T5 construct: human Frizzled-4 (FZD4) cysteine-rich domain; One of 'all 10 human Frizzled CRDs'; also called FZD4 CRD; source: HEK293T constitutively expressing ER-localised biotin ligase, transfected, biotinylated in vivo; not shown: Avi3, C-terminal, kept
T5 sequence (Q9ULV1 whole entry, looked up, the tested form may be a part): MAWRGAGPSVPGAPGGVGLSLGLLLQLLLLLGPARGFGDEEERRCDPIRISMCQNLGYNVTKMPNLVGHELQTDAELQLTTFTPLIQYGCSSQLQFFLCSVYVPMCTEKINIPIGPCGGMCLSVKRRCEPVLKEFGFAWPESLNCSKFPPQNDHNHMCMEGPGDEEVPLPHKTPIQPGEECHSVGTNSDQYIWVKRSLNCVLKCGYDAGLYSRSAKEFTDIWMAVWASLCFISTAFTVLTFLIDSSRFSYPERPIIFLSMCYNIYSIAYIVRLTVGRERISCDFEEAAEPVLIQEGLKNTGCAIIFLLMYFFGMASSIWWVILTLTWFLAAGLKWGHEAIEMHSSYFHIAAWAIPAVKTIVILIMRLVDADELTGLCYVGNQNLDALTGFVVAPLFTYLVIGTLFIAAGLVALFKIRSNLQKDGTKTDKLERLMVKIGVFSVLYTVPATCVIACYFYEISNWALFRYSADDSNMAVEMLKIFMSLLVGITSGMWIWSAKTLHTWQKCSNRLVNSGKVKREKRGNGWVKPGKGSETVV

[6] = molecular target: T6, biotinylated FZD1 cysteine-rich domain (CRD) (Homo sapiens, UniProt Q9UP38, biotin (in vivo biotinylation of the Avi tag)); test: as above
T6 construct: human Frizzled-1 (FZD1) cysteine-rich domain; One of 'all 10 human Frizzled CRDs'; also called FZD1 CRD; source: HEK293T constitutively expressing ER-localised biotin ligase, transfected, biotinylated in vivo; not shown: Avi3, C-terminal, kept
T6 sequence (Q9UP38 whole entry, looked up, the tested form may be a part): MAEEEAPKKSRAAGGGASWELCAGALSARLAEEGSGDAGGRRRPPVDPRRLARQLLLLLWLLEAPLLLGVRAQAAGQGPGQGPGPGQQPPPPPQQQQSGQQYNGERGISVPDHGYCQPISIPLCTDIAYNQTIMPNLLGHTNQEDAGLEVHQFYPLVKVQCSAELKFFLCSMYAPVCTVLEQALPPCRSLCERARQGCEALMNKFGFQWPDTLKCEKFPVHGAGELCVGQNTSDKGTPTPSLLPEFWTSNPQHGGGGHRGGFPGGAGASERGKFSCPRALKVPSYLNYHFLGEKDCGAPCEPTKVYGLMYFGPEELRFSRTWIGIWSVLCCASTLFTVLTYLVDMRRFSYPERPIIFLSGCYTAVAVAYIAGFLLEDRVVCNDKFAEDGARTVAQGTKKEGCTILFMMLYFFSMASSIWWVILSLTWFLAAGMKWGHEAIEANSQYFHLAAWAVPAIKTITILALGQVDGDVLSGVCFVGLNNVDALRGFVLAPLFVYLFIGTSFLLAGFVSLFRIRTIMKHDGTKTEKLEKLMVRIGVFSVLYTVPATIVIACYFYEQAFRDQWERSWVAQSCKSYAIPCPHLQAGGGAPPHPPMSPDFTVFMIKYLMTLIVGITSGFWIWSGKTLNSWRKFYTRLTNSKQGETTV

[7] = molecular target: T7, biotinylated FZD10 cysteine-rich domain (CRD) (Homo sapiens, UniProt Q9ULW2, biotin (in vivo biotinylation of the Avi tag)); test: as above
T7 construct: human Frizzled-10 (FZD10) cysteine-rich domain; One of 'all 10 human Frizzled CRDs'; also called FZD10 CRD; source: HEK293T constitutively expressing ER-localised biotin ligase, transfected, biotinylated in vivo; not shown: Avi3, C-terminal, kept
T7 sequence (Q9ULW2 whole entry, looked up, the tested form may be a part): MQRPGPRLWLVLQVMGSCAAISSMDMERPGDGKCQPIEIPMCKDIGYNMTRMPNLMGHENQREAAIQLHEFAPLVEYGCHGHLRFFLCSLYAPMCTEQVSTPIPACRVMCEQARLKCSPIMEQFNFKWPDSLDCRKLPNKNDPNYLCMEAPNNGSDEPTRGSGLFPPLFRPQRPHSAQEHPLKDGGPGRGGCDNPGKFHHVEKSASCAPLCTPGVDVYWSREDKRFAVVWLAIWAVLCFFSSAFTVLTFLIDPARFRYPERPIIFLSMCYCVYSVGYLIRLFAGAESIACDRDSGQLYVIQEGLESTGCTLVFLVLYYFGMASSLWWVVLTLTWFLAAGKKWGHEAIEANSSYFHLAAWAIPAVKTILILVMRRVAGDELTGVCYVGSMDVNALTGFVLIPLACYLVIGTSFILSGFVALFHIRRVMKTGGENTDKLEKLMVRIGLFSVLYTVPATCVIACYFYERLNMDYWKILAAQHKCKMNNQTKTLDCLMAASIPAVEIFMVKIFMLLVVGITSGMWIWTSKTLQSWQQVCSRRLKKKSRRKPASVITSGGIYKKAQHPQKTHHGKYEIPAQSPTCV

[8] = molecular target: T8, biotinylated FZD2 cysteine-rich domain (CRD) (Homo sapiens, UniProt Q14332, biotin (in vivo biotinylation of the Avi tag)); test: as above
T8 construct: human Frizzled-2 (FZD2) cysteine-rich domain; One of 'all 10 human Frizzled CRDs'; also called FZD2 CRD; source: HEK293T constitutively expressing ER-localised biotin ligase, transfected, biotinylated in vivo; not shown: Avi3, C-terminal, kept
T8 sequence (Q14332 whole entry, looked up, the tested form may be a part): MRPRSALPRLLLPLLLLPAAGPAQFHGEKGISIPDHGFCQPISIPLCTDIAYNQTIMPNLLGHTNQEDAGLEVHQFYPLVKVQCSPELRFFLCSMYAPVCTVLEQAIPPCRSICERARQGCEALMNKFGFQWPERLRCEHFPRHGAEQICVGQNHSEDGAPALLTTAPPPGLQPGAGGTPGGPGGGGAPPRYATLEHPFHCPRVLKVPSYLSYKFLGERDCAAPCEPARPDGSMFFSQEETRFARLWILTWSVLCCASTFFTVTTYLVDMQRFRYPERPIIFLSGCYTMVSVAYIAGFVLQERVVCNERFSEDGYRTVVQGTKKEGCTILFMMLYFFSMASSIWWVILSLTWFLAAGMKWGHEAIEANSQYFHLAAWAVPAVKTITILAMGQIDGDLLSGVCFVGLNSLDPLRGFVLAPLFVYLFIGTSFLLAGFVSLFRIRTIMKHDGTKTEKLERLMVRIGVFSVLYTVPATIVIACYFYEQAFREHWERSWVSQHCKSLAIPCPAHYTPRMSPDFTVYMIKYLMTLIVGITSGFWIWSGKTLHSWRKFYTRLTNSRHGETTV

[9] = molecular target: T9, biotinylated FZD8 cysteine-rich domain (CRD) (Homo sapiens, UniProt Q9H461, biotin (in vivo biotinylation of the Avi tag)); test: as above
T9 construct: human Frizzled-8 (FZD8) cysteine-rich domain; One of 'all 10 human Frizzled CRDs'; also called FZD8 CRD; source: HEK293T constitutively expressing ER-localised biotin ligase, transfected, biotinylated in vivo; not shown: Avi3, C-terminal, kept
T9 sequence (Q9H461 whole entry, looked up, the tested form may be a part): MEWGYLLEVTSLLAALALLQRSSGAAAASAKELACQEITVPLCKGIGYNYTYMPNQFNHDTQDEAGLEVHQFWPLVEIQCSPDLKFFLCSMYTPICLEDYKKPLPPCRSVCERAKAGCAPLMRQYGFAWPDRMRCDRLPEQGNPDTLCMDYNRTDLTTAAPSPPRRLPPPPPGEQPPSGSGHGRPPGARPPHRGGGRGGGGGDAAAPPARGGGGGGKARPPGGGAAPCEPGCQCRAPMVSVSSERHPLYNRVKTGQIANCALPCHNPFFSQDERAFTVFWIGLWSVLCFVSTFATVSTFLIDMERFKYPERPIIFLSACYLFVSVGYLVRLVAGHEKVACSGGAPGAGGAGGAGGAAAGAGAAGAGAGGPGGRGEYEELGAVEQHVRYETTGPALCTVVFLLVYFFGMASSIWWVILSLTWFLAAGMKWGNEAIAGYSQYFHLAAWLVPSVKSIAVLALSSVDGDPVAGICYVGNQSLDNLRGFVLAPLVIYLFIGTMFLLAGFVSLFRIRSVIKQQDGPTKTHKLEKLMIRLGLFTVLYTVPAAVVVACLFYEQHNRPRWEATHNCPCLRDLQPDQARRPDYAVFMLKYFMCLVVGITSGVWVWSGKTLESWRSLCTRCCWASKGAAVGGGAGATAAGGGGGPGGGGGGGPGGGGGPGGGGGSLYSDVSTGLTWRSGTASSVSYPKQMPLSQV

[10] = molecular target: T10, biotinylated FZD5 cysteine-rich domain (CRD) (Homo sapiens, UniProt Q13467, biotin (in vivo biotinylation of the Avi tag)); test: as above
T10 construct: human Frizzled-5 (FZD5) cysteine-rich domain; One of 'all 10 human Frizzled CRDs'; also called FZD5 CRD; source: HEK293T constitutively expressing ER-localised biotin ligase, transfected, biotinylated in vivo; not shown: Avi3, C-terminal, kept
T10 sequence (Q13467 whole entry, looked up, the tested form may be a part): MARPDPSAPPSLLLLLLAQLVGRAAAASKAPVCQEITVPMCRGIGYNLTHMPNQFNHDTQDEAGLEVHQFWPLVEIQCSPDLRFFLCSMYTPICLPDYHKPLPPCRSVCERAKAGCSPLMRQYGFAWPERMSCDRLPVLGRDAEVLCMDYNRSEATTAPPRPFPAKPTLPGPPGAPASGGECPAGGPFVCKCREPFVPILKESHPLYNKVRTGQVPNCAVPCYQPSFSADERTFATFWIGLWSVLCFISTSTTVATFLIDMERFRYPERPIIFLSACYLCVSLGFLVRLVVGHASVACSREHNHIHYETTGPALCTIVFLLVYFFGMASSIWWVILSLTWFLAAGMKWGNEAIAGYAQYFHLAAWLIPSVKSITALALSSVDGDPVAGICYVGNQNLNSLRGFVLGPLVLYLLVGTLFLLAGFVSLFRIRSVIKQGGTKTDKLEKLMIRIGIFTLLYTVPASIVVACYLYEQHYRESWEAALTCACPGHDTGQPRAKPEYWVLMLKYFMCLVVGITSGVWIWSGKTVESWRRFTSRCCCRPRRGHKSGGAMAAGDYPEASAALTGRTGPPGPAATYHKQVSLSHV

[11] = molecular target: T11, biotinylated FZD9 cysteine-rich domain (CRD) (Homo sapiens, UniProt O00144, biotin (in vivo biotinylation of the Avi tag)); test: as above
T11 construct: human Frizzled-9 (FZD9) cysteine-rich domain; One of 'all 10 human Frizzled CRDs'; also called FZD9 CRD; source: HEK293T constitutively expressing ER-localised biotin ligase, transfected, biotinylated in vivo; not shown: Avi3, C-terminal, kept
T11 sequence (O00144 whole entry, looked up, the tested form may be a part): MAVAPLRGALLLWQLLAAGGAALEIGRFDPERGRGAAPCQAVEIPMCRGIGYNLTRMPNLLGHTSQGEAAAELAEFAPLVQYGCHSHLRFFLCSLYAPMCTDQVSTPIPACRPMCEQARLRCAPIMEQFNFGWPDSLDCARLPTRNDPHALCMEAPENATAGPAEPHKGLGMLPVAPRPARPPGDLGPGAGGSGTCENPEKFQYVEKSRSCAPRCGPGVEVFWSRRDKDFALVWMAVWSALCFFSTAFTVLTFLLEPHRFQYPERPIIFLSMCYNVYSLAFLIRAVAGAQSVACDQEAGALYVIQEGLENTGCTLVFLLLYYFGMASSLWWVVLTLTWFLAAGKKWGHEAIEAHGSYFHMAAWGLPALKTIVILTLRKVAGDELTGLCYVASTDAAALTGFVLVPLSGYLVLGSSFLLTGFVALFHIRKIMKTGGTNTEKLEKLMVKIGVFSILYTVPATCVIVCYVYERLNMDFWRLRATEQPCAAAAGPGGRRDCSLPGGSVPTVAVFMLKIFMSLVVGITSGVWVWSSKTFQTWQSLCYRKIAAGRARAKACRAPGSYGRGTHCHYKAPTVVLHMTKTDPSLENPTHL

B1: Nb1 (VHH)
VHH: QVQLVESGGGLVQAGGSLRLSCAASGNIFSINAMGWYRQAAGKQRELVAAITSGGSTNYADSVKGRFTISRDNAKNTVYLQMNSLKPEDTAVYYCNADEWALGEHWGQGTQVTVSS
notes: also called nanobody 1; family 1 (Nb1, 3-6)
binding result [1]: binds

B2: Nb9 (VHH)
VHH: QVQLVESGGGLVQAGGSLRLSCTASGRIFNLDVMGWYRQAPGKRRELVADITSGGKINYADSVKGRFTISRDNTKDTVYLQMNSLKPEDTAVYYCNAEVEWLDMDYWGKGTQVTVSS
notes: most of the chain also in PDB 8QW4 (as the megabody); also called nanobody 9; family 3
Kd [2]: 410 ± 41 nM
Kd [1]: 32 ± 2.8 nM

B3: Nb8 (VHH)
VHH: QVQLVESGGGLVQAGGSLRLSCAASGSISSINAMGWYRQAPGKQRELVAAITSGGSTNYADSVKGRFTISRDNAKNTVYLQMNSLKPGDTAVYYCNLLYYIDYVEYDYWGQGTQVTVSS
notes: also in PDB 8Q7O; residues 1-119 are named for the Nb8 module of the surrogate; Untagged in the crystallisation sample; also called nanobody 8; family 2; source: co-expressed untagged with FZD3 CRD in HEK293S GnTI- cells (for crystallisation)
Kd [3]: 19.2 ± 1.2 nM
binding result [4]: no binding
binding result [5]: no binding
binding result [6]: no binding
binding result [7]: no binding
binding result [8]: no binding
binding result [9]: no binding
binding result [10]: no binding
binding result [11]: no binding
